Experimental findings from PMC3247260 (2011) are described below.

Some targets named below: ubiquitin (Ub) (UniProt P0CG48 1-76); linear diUb (UniProt P0CG48 1-76; P0CG48 1-76); K48-linked diUb (UniProt P0CG48 1-76, K48-linked (isopeptide linkage between the two Ub units)).
Common to all, as to test: ITC

B1: tandem UBA domains of USP13 (USP13-UBA12, residues 652-776) (domain or fragment)
chain: DIDESSVMQLAEMGFPLEACRKAVYFTGNMGAEVAFNWIIVHMEEPDFAEPLTMPGYGGAASAGASVFGASGLDNQPPEEIVAIITSMGFQRNQAIQALRATNNNLERALDWIFSHPEFEEDSDF
As usually defined, the Kd is a measure of binding affinity in units of concentration. A low value points to a tighter complex. As for B1, the Kd was 21000 nM in the assay with ubiquitin (Ub), 2300 nM in the assay with linear diUb and 1800 nM with K48-linked diUb.
